Laboratory results: paper PMC10847417
Values belong to the substance of their own block, whether it stands above or below them.

Key:
[1] = molecular target: HA-PKM2 (wild type), expressed in 293T cells (human) (UniProt P14618); test: SEC; cell lysates (A549, H1299 or transfected 293T; with shCIP2A, pCDH-CIP2A or Flag-CIP2A) on Superdex 200 Increase 10/300 GL, 50 mM sodium phosphate, 0.15 M NaCl, pH 7.2; fractions analysed by western blot; both exogenous and endogenous PKM2 included
[2] = molecular target: purified recombinant WT PKM2 expressed in bacteria (human) (UniProt P14618); test: SEC; purified recombinant WT, S287A and S287D PKM2 expressed in bacteria; size exclusion chromatography with molecular mass standards
[3] = molecular target: pyruvate kinase M2 (PKM2), endogenous (human (endogenous in A549 and H1299)) (UniProt P14618); test: cross-linking; H1299 cell lysates (with Flag-CIP2A or siCIP2A) treated with 0.01% glutaraldehyde at 37 °C for 9 min, SDS-PAGE, western blot with anti-PKM2

Sequence of purified recombinant WT PKM2 expressed in bacteria, P14618 1-531 (enzyme; other documents disagree on this pair) (P14618 whole entry): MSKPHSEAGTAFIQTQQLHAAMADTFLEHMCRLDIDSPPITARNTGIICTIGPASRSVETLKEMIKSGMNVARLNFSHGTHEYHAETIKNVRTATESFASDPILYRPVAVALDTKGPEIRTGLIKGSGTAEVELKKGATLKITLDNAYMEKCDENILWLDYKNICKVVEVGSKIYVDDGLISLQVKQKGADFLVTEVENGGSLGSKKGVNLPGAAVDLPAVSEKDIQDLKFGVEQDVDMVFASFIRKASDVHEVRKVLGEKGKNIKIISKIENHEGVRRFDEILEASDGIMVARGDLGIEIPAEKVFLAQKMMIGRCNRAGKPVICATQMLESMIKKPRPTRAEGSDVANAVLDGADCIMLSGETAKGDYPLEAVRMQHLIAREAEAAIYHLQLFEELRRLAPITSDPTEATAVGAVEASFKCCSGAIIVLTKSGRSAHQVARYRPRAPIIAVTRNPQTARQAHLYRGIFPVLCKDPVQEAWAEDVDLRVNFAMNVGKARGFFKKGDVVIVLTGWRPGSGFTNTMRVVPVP
Sequence of pyruvate kinase M2 (PKM2), endogenous, P14618 1-531 (enzyme; other documents disagree on this pair) (P14618 whole entry): as above
Sequence of HA-PKM2 (wild type), expressed in 293T cells, P14618 1-531 (enzyme; other documents disagree on this pair) (P14618 whole entry): as above

- stoichiometry N [1]: 2
Substance: HA-PKM2 (wild type), expressed in 293T cells, P14618 1-531 (enzyme; other documents disagree on this pair)

- stoichiometry N [2]: 2
Substance: purified recombinant WT PKM2 expressed in bacteria, P14618 1-531 (enzyme; other documents disagree on this pair)

- stoichiometry N [3]: 2
Substance: pyruvate kinase M2 (PKM2), endogenous, P14618 1-531 (enzyme; other documents disagree on this pair)
